Measured values: article PMC10656488 (2023)

B1: ATAT1 protein (in vitro acetylation system, ITC and SPR) (enzyme)
chain: MEFPFDVDALFPERITVLDQHLRPPARRPGTTTPARVDLQQQIMTIVDELGKASAKAQHLPAPITSALRMQSNRHVIYILKDTSARPAGKGAIIGFLKVGYKKLFVLDDREAHNEVEPLCILDFYIHESVQRHGHGRELFQHMLQKERVEPHQLAIDRPSPKLLKFLNKHYNLETTVPQVNNFVIFEGFFAHQHRPPTSSLRATRHSRAAVADPIPAAPARKLPPKRAEGDIKPYSSSDREFLKVAVEPPWPLNRAPRRATPPAHPPPRSSSLGNSPDRGPLRPFVPEQELLRSLRLCPPHPTARLLLATDPGGSPAQRRRTRGTPWGLVAQSCHYSRHGGFNTSFLGTGNQERKQGEQEAEDRSASEDRVLLLDGSGEEPTQTGAPRAQAPPPQSWTVGGDIMNARVIRNLQERRSTRPW
B2: SCNN1B protein (in vitro ubiquitination system, ITC and SPR) (natural protein)
chain: MPVKKYLLKCLHRLQKGPGYTYKELLVWYCNNTNTHGPKRIICEGPKKKAMWFLLTLLFACLVCWQWGVFIQTYLSWEVSVSLSMGFKTMNFPAVTVCNSSPFQYSKVKHLLKDLDELMEAVLEKILAPEASHSNTTRTLNFTIWNHTPLVLIDERNPDHPVVLNLFGDSHNSSNPAPGSTCNAQGCKVAMRLCSANGTVCTLRNFTSATQAVTEWYILQATNIFSQVLPQDLVGMGYAPDRIILACLFGTEPCSHRNFTPIFYPDYGNCYIFNWGMTEETLPSANPGTEFGLKLILDIGQEDYVPFLASTAGARLMLHEQRTYPFIREEGIYAMAGTETSIGVLVDKLQRKGEPYSPCTMNGSDVAIKNLYSVYNTTYSIQACLHSCFQDHMIRNCSCGHYLYPLPEGEKYCNNRDFPDWAYCYLNLQMSVTQRETCLSMCKESCNDTQYKMTISMADWPSEASEDWILHVLSQERDQSSNITLSRKGIVKLNIYFQEFNYRTIEESPANNIVWLLSNLGGQFGFWMGGSVLCLIEFGEIIIDFIWITIIKLVASCKGLRRRRPQAPYTGPPPTVAELVEAHTNFGFQPDTTSCRPHGEVYPDQQTLPIPGTPPPNYDSLRLQPLDTMESDSEVEAI

Target: HSPA5 protein (wild type, in vitro systems, ITC and SPR) (UniProt P20029 20-655)
Experiment: ITC

Sequence of HSPA5 protein (wild type, in vitro systems, ITC and SPR) (P20029 20-655): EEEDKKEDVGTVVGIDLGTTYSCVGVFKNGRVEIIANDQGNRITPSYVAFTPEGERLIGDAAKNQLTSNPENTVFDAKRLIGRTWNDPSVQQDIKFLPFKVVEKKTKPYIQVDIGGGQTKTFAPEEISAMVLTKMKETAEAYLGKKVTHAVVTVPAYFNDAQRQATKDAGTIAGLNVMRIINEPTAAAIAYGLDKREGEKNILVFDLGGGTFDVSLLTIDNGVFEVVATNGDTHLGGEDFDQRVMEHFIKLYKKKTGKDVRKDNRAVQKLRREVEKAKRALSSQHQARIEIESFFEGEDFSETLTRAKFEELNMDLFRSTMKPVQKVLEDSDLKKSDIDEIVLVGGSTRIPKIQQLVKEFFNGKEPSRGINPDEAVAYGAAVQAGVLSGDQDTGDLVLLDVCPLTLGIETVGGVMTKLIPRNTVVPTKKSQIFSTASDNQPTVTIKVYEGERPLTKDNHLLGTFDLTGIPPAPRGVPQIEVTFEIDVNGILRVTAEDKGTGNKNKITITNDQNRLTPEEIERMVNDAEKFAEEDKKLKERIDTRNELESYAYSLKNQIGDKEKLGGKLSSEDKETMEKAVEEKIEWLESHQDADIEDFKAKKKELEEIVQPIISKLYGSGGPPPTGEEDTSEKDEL

| Binder | Kd [nM] |
| --- | --- |
| B1 | 110 |
| B2 | 860 |
